Experimental findings from US8030017B2, “Thermostable luciferases and methods of production” (Promega Corporation, priority 1997, dated 2011) are described below.

Data set [1] in a line: Robotic quantitative screen of E. coli lysates: luminescence activity (Li), expression/specific activity. Particulars: relative value; Control is Luc85-4F12 at 65° C. (=1). It counts as biochemical. The method, then:
A plate containing cells is retrieved from the carousel and placed on the shaker for 3-5 minutes to fully mix the cells. The cells tend to settle from solution upon standing.
To measure Optical Density (O.D.), the plate is moved from the shaker to the locator near the luminometer; the lid is removed and the plate placed into the luminometer. The O.D. is measured using a 620 nm filter.
To prepare a cell lysate, the plate of cells is first retrieved from the refrigerator and mixed on the shaker to resuspend the cells. A new plate from the carousel without a lid is placed in the reagent dispenser and 20 μl of Buffer A is added to each well. This is placed in the pipetting station.
The plate is then moved to the reagent dispenser to add 175 μl of Buffer B, and then mixed on the shaker for about 15 minutes or more. The combination of the freeze/thaw and Buffer B will cause the cells to lyse.
One daughter plate is placed in the luminometer and the 1X assay method is used. After the assay, the plate is placed in the ambient incubator, and the second daughter plate is placed in the luminometer. For the second plate, the 0.02X assay method is used. This plate is discarded, and the first plate is returned from the incubator to the luminometer. The repeat assay method is used (i.e., no reagent is injected). Afterwards, the plate is again returned to the ambient incubator.
1X Assay reagent: 5 μM Luciferin; 175 μM ATP; 20 mM Tricine, pH 8.0; 0.1 mM EDTA
(§1) The following criteria were used for screening purposes. The temperature chosen for the enzyme stability parameter was such that the parent enzyme would decay 100 to 1000 fold over 10 hours (see Table 1). Criteria 1 is achieved manually; data for criteria 2-6 is generated by robotic analysis. For all criteria, the maximum value as described is selected. • 1. In vivo screen. The brightest clones are selected at a given temperature. • 2. Expression/specific activity. The value for normalized luminescence is calculated as the ratio of luminescence to optical density. The value is reported as the ratio with the reference value. • 3. Enzyme stability. Measurements of normalized luminescence of the incubated samples (3 taken over about 15 hours) are fitted to In(L)=In(L0)−(t/τ), where L is normalized luminescence and t is time. τ is a measure of the enzyme stability. The value is reported as the ratio with the reference value, and the correlation coefficients are calculated. • 4. Substrate binding. Measurements of normalized luminescence with 1X and 0.02X are taken at the initial reading set, and 1X and 0.06X are taken at the 5 hour set. The ratio of the 0.02X:1X and 0.06X:1X gives the relative luminescence at 0.02X and 0.06X concentrations. These values, along with the relative luminescence at 1X (i.e., 1), are fitted to a Lineweaver-Burk plot to yield the Km:app,total for the substrates ATP, luciferin, and CoA. The values are reported as the inverse ratio with the reference value, and the correlation coefficients are calculated. • 5. Signal stability. The luminescence of the initial IX luminescent reactions are re-measured 3 additional times over about 15 hours. These values are fitted to In(L)=In(L0)−(t/τ) and the integral over t (15 hours) is calculated. Signal stability is then calculated as S=(1−int(L)/L0t)^2. The values are reported as the inverse ratio with the reference value, and the correlation coefficients are calculated. • 6. Composite fitness. The values of criteria 2 through 5 are combined into a single composite value of fitness (or commercial utility). This value is based on a judgment of the relative importance of the other criteria. This judgment is given below:
Normalize luminescence data: For each measurement of luminescence in the eight daughter plates, the normalized luminescence is calculated by dividing the relative light units by the optical density of the original plate. […]

Data set [2] is described as follows: Robotic quantitative screen of E. coli lysates: enzyme stability (tau) at elevated temperature. It counts as physicochemical. The note with it: relative value; Control is Luc85-4F12 at 65° C. (=1). The procedure: Two white assay plates (Labsystems #9502887) are obtained from the plate feeder and placed in the pipetter. The incubation plate from the shaker is placed in the pipetter, and the lid removed and placed on the nearby locator. Two daughter plates are made using the pipetting procedure (see “Create Pair of Daughter Plates from Incubation Plate”). Afterwards, the lid is replaced on the parent plate, and the plate is placed in a high temperature incubator. [ranging from 31° C. to about 65° C. depending on the clone.]
To begin the second set of measurements, the plate from the high temperature incubator is placed in the shaker to mix.
In the final set of measurements, the plate from the high temperature incubator is again placed in the shaker to mix.
as §1
Calculate enzyme stability (τ): For each sample, use linear regression to fit In(L1x)=In(L0)−(t/τ) using the three luminescence measurements with 1X substrate concentrations (Plates 1, 5, 8). Also calculate the regression coefficient.
Calculate the reference-normalized values: For the criteria parameter of each sample, a reference-normalized value is determined by calculating the ratio or inverse ratio with the respective reference value. The reference-normalized values are Li/Lir, τ/τr, Kmr/Km:app,total, and Sr/S, where reference values are calculated from the equations of the appropriate reference surface.
“Enzyme stability” was determined by the rate of activity loss from cell lysates over 10 hours. In successive rounds of evolution the incubation temperature of the lysates was increased.
Robotic Automation: Robotic automation was used in the quantitative screens to accurately perform the large number of required quantitative assays on the cultured cells. […]

B1: Luc90-1B5: mutant luciferase, SEQ ID NO:24 (protein)
chain: MADKNILYGPEPFYPLEDGTAGEQMFDALSRYADIPGCIALTNAHTKENVLYEEFLKLSCRLAESFKKYGLKQNDTIAVCSENGLQFFLPVIASLYLGIIVAPVNDKYIERELIHSLGIVKPRIVFCSKNTFQKVLNVKSKLKSIETIIILDLNEDLGGYQCLNNFISQNSDSNLDVKKFKPYSFNRDDQVALIMFSSGTTGLPKGVMLTHKNIVARFSLAKDPTFGNAINPTTAILTVIPFHHGFGMMTTLGYFTCGFRVVLMHTFEEKLFLQSLQDYKVESTLLVPTLMAFLAKSALVEKYDLSHLKEIASGGAPLSKEIGEMVKKRFKLNFVRQGYGLTETTSAVLITPKGDAKPGSTGKIVPFHAVKVVDPTTGKILGPNEPGELYFKGPMIMKGYYNNEEATKAIIDNDGWLRSGDIAYYDNDGHFYIVDRLKSLIKYKGYQVAPAEIEGILLQHPYIVDAGVTGIPDEAAGELPAAGVVVQTGKYLNEQIVQDYVASQVSTAKWLRGGVKFLDEIPKGSTGKIDRKVLRQMFEKHTNG
modifications: Mutant luciferase
As for B1, the “Luminescence (Li)” value in data set [1] is listed as 1.4743. In data set [2], the “Enzyme stability (tau)” value was 1.1154.
